Experimental findings from publication PMC5957528, “Boosting ATM activity alleviates aging and extends lifespan in a mouse model of progeria” (eLife, 2018) are described below.

One assay has as its target SIRT6 (UniProt Q8N6T7). Kind of assay: anti-HA co-IP, ATM immunoblot. The conditions noted are these: reference: Flag-ATM wild type; sites S1981.
The target of a further assay is MDM2 (UniProt Q00987). As to the kind of experiment: anti-Flag co-IP, MDM2 immunoblot. As to conditions: reference: Flag-SIRT6 wild type; sites S112. For orientation: In western blotting, separated proteins are transferred to a membrane and probed.
For the next assay, the target named is T1, His-SIRT6 (human, UniProt Q8N6T7 1-355).
T1 construct: SIRT6, human; also called 6 × His tagged SIRT6; purified His-SIRT6; source: bacterially expressed, purified
T1 sequence (Q8N6T7 whole entry): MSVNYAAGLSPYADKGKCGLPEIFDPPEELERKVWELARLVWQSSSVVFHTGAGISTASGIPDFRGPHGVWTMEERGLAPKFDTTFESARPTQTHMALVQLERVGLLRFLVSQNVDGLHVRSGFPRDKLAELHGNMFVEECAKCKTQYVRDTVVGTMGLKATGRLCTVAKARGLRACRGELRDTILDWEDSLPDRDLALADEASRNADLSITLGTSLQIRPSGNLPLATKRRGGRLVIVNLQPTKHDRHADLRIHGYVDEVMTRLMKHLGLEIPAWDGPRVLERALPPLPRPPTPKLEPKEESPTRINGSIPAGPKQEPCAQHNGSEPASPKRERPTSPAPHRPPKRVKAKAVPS
Kind of assay: pull-down; GST pull-down: bacterially expressed 6 × His SIRT6 incubated separately with GST-ATM fragments in 150 mM NaCl, 20 mM Tris-HCl pH 7.5, 5 mM MgCl2, 0.2 mM EDTA, 10% glycerol, 0.2% NP-40; Glutathione Sepharose; washed with TEN buffer (300 mM NaCl). As to conditions: both partners purified.

For “ATM (from UniProt Q13315) Flag-ATM S1981A”, the “binding against the reference” value with SIRT6 is reported as “lost”. Regarding “SIRT6 (from UniProt Q8N6T7) Flag-SIRT6 S112A”, the “binding against the reference” value in the assay with MDM2 is given as “stronger”.

B1: GST-ATM-4 (residues 770–1102) (domain or fragment, human, UniProt Q13315 770-1102, looked up)
chain: EFRIGSLRNMMQLCTRCLSNCTKKSPNKIASGFFLRLLTSKLMNDIADICKSLASFIKKPFDRGEVESMEDDTNGNLMEVEDQSSMNLFNDYPDSSVSDANEPGESQSTIGAINPLAEEYLSKQDLLFLDMLKFLCLCVTTAQTNTVSFRAADIRRKLLMLIDSSTLEPTKSLHLHMYLMLLKELPGEEYPLPMEDVLELLKPLSNVCSLYRRDQDVCKTILNHVLHVVKNLGQSNMDSENTRDAQGQFLTVIGAFWHLTKERKYIFSVRMALVNCLKTLLEADPYSKWAILNVMGKDFPVNEVFTQFLADNHHQVRMLAAESINRLFQDTKG
notes: source: recombinant GST fusion (pGEX4T-3 vector)
B1: in the assay with His-SIRT6, the binding result is “binds”.
